The values that follow come from patent US20190062399A1.

This assay addresses B7-1Ig (CD80-Ig fusion protein) (UniProt P33681). In words: SPR kinetics (Biacore), 75-200 nM analyte over B7-1Ig chip (694 RU). A general note: SPR reads the build-up and loss of mass on a sensor chip optically.
Chain of UniProt P33681 (P33681 35-242 limits assumed): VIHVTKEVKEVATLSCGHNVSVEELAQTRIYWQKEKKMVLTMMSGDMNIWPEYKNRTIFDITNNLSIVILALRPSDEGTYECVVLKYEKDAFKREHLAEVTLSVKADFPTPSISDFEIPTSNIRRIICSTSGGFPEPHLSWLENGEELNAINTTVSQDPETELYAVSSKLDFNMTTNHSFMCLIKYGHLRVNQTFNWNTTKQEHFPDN

Chain of Protein A eluate of the HIC cleaning peak (mixture of all CTLA4-Ig species) (chain): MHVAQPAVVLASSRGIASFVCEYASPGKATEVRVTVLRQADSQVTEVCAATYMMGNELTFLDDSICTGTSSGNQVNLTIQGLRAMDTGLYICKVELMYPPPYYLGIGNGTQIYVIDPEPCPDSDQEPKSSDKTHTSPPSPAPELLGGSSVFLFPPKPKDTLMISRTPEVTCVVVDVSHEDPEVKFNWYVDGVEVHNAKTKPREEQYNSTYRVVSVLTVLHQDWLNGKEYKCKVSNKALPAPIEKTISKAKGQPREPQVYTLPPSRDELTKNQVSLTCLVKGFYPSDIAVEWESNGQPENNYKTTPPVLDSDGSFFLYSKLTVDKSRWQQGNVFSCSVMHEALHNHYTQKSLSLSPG

By Kd is commonly meant the concentration at which binding is half-saturated. As a reminder, the koff is the first-order rate constant of dissociation. Low readings indicate slow dissociation, high ones fast dissociation. A word on the kon: it is the second-order rate constant of association. Low values mean slower complex formation, high ones faster complex formation. Consider “Protein A eluate of the HIC cleaning peak (mixture of all CTLA4-Ig species)”, for which the Ka was 3.87e+07 M⁻¹, the equilibrium dissociation constant (Kd) stood at 25.8 nM, the koff was 0.00973 s⁻¹ and the kon was determined as 377000 M⁻¹ s⁻¹.
